Common to all, as to assay: MST
For assay [1], the target named is T1, full-length ETR1, purified and fluorescently labelled (Arabidopsis, UniProt P49333 1-738, fluorescent label (dye and site not stated)).
T1 chain: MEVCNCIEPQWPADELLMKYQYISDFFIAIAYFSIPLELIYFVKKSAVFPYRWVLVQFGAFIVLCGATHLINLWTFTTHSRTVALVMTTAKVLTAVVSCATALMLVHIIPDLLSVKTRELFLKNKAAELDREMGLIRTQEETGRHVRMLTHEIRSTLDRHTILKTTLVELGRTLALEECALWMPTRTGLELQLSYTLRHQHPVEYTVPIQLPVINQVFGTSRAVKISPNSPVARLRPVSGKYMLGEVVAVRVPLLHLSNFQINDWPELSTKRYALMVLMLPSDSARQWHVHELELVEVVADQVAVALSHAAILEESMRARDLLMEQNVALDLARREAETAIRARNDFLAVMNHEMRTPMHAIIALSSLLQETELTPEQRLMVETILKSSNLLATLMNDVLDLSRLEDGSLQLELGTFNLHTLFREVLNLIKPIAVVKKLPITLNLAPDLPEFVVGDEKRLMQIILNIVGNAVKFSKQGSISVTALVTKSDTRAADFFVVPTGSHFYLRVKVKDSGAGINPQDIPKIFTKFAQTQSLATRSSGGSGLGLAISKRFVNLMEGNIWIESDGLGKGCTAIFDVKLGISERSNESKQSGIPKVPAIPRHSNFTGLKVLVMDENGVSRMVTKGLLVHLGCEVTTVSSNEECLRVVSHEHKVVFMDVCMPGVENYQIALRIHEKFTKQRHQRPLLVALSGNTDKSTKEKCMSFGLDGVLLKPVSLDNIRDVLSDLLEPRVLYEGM

For assay [2], the target named is ETR1 1-598.
The target in assay [3] is ETR1 1-157.
Assay [4] deals with ETR1 1-407.
Assay [5] has as its target ETR1 1-307.

B1: synthetic full length PLS peptide PLS(FL) (peptide)
peptide: MKPRLCFNFRRRSISPCYISISYLLVAKLFKLFKIH
The term Kd denotes the equilibrium constant for the complex coming apart. High values mean a looser complex, low ones a tighter complex. With B1, the Kd in assay [1] stood at 1900 nM; in assay [2], 2920 nM; in assay [3], 1520 nM; in assay [4], 1650 nM; in assay [5] it was 1780 nM.

Values taken from doi:10.1101/2023.06.15.545071 (2023).
